Assay results taken from the supplement of paper PMC11865577.

Legend:
Experiment in all cases: pull-down binding Z-score (relative to library population); higher = stronger binding
[1] = test system: G-clamp-N3 (biotin conjugate); settings: RNA library: Library-1 (pre-miRNA loops + repeats)
In short: (§1)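 Streptavidin beads bearing 100 pmol of a biotin-conjugated small molecule were incubated for 60 min at 25 °C with 1 μg of heat-folded, Cy5- or Cy3-end-labelled RNA library in phosphate/NaCl/KCl buffer. Hot SDS eluted the RNA that stayed bound after three washes, and this RNA was hybridised for 20 h at 55.5 °C to a DNA barcode microarray. Binding was expressed as a Z-score against the library mean and standard deviation, after subtraction of a beads-only signal and trimmed averaging of barcoded replicate probes.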

[2] = test system: TO-3-N3 (biotin conjugate); settings: RNA library: Library-2
In short: as §1

[3] = test system: TO-3-N3-2 (biotin conjugate); settings: RNA library: Library-2
In short: as §1

TO-N3 (biotin conjugate) = settings: RNA library: Library-2
In short: as §1

[4] = test system: TO-N3-2 (biotin conjugate); settings: RNA library: Library-2
In short: as §1

Sequence	pull-down binding Z-score [1]	pull-down binding Z-score [2]	pull-down binding Z-score [3]	pull-down binding Z-score (TO-N3 (biotin conjugate))	pull-down binding Z-score [4]
CUGGGUUCGGCUGCUACCCCAAA [hsa-mir-6768]	-1.38	0.179	0.195	0.563	0.742
UAGAUACUCAGGAGGGUGAGUAUCUA [hsa-mir-5689]	1.64	-0.511	-0.33	-0.797	-0.726
AGUGAGCUGAGAUCACGCAACU [hsa-mir-1273f]	0.617	-0.37	0.00609	0.206	0.629
GAUCCAGCCCAGGCUGGUUCCGCUGAC [hsa-mir-4522]	-0.211	1.15	0.351	1.23	1.51
UCACAAUUGCGCUACAGAACUGUUGA [hsa-mir-203b]	0.254	0.859	0.314	1.12	0.308
UCCCUUCCUGGACACACAGGAGGAGA [hsa-mir-5680]	-1.27	-0.738	-0.8	-0.874	-0.56
AGAAGCUAAAGUGUAGAUCAAACGCAUAAUGGCUGA [hsa-mir-4500]	-0.364	0.197	0.195	0.65	0.233
CAGGAUUAGUGCUUAUGCUAAGAUGUCUUCACUG [hsa-mir-6773]	0.887	-0.824	-0.269	-0.75	-0.301
CAGGAGUGGACACCUG [hsa-mir-1246]	-0.505	-0.0928	-0.238	-0.198	-0.454
UUUGUGGGGCGAGGAGGGACCUGUACUAGCCAUGGUUCUGAUCACAUAUG [hsa-mir-6834]	0.432	3.06	2.72	3.83	2.89
CACUACAAGAAGAAUGUAGUUGUG [hsa-mir-19a]	1.3	-0.108	0.234	-0.154	0.739
CCUUGCCUGUGGCAAGACCACUUCGGUUCAAGG [hsa-mir-4295]	0.54	0.0272	-0.191	0.0379	0.237
UGUGCCCCGUACCGGACAGG [hsa-mir-7160]	-1.03	-0.0418	-0.0308	0.611	1.21
AGUGCAGUAUGGUGAAGUCAAUCUGUAAU [hsa-mir-590]	1.31	-0.357	0.0335	-0.148	0.424
AGAAGCCCAGGUUCUGAAUCCCCU [hsa-mir-6734]	-1.05	0.393	0.23	0.628	0.901
CCUGCUGUGUGAAACAAAAGUAAG [hsa-mir-302c]	-1.08	-0.422	0.0469	0.103	0.474
AGAACAGAUAUAUCCACAGUACACUUGGCUGUUCU [hsa-mir-4753]	0.593	-0.759	-0.354	-0.943	-0.635
CCACUACCGGUGA [hsa-mir-4658]	-0.573	-0.207	-0.309	-0.127	-0.288

Sequence	pull-down binding Z-score [1]	pull-down binding Z-score [2]	pull-down binding Z-score [3]	pull-down binding Z-score (TO-N3 (biotin conjugate))	pull-down binding Z-score [4]
CCCAUAUAAUAUUAGGGG [hsa-mir-4483]	2.5	-0.469	0.176	-0.783	-0.667
GCUGGUCGCGGGUUGUGGGGUUUAGGUCACCGGC [hsa-mir-5091]	1.7	3.15	2.9	3.21	2.87
UGUUCGCUUUAUUUAUGAUGAAUCA [hsa-mir-539]	0.0951	-0.769	-0.121	-0.916	-1.01
GGUGUCGAACUCAUGGCUGCCACC [hsa-mir-6782]	0.197	-0.346	-0.167	-0.065	0.629
UUUGCCAUUAAAAGUAAUGCGGCCAA [hsa-mir-548o-2]	-1.43	-0.219	0.0369	-0.0582	-0.13
GGCGGAGGCAGGCGUGACCGUUUGCC [hsa-mir-4632]	1.09	0.432	0.38	1.11	1.56
ACAUUUGCAACCUGUGAAGAUGCAAAACUUUAAGUGU [hsa-mir-2053]	-0.673	-0.699	-0.262	-0.853	-0.701
CUGAUUGUCAUAUGUCGUUUGUGGGAUCCG [hsa-mir-340]	-0.698	-0.605	-0.336	-0.333	0.334
GCAGAAAUCACUCCAGGAGCAACUGA [hsa-mir-936]	-0.3	-0.365	0.0585	0.625	0.712
GGGAACUGGUGAGUUGUACAUAGAAAUGCUUUCUAACUCC [hsa-mir-4499]	0.204	-0.123	-0.00162	0.112	0.548
UCUUCUUGGAGUCAGGAAAA [hsa-mir-320d-2]	-0.411	-0.553	-0.458	-0.663	-0.514
AGACUCUGGAUUUUACACUUGGAGUG [hsa-mir-887]	-0.423	-0.461	-0.196	-0.207	-0.0223
UCUGCAGGUUCGCACUGAUGCCUGCUCG [hsa-mir-6726]	0.44	0.0628	-0.102	0.309	0.569
UGUGGUGGGUGGUGGCCUGCGGUGAGCAGGGCCCUCA [hsa-mir-1228]	0.921	1.6	1.08	2.36	2.1
AAGGCGGGUGGUGCUCAGAUCGCCU [hsa-mir-326]	0.799	-0.0387	0.00254	0.274	0.779
GCUGAGCCCUUUGAUAAGGGGGAGGUU [hsa-mir-8080]	-0.454	0.21	-0.219	0.361	0.545
CUGCUGCCGAUUCUGCACCAG [hsa-mir-4756]	-1.02	-0.432	-0.46	-0.301	0.461
GGUUUCCUUCGGGGCAGGUGGGGACUGCUCCUUUGGGAGGAAGGAGGAGGCC [hsa-mir-4453]	1.28	2.21	1.96	2.34	2.11
